Source: publication PMC12691637

Target: cytosolic fragment of the McpN chemoreceptor (McpN_CF) (Pseudomonas aeruginosa PAO1)
Experiment: ITC; VP microcalorimeter, 25°C; 3 mM Tris, 3 mM PIPES, 3 mM MES, 5 mM 2-mercaptoethanol, pH 8.0; 10 µM cytosolic fragment in the sample cell titrated with 12.8 µL aliquots of 113 µM CheV or CheV D238E; 'Two Binding Sites' model

**Q.** For “CheV D238E (phosphorylation mimic) of Pseudomonas aeruginosa PAO1 (natural protein)”, which KD of the first event (high affinity, endothermic) is on record?
**A.** The KD of the first event (high affinity, endothermic) was 0.008 µM.

**Q.** What about the KD of the second event (lower affinity, exothermic) of the same substance?
**A.** Its KD of the second event (lower affinity, exothermic) is 3 µM.

**Q.** And the N of the first event?
**A.** Its N of the first event is 0.5.
